B1: single-stranded peptide (SSP) incorporating residues 1263-1277 from the α1 chain of type IV collagen (peptide)
peptide: GVKGDKGNPGWPGAP

Key:
[1] = target: K1735 M4 tumor cells (melanoma cells); assay: adhesion of 3H-thymidine-labelled K1735 M4 cells to peptide-coated Immulon plates, 1 h at 37 °C
[2] = target: K1735 M4 tumor cells (melanoma cells); assay: adhesion of 3H-thymidine-labelled K1735 M4 cells to peptide-coated Immulon plates, 1 h at 37 °C; one mole of SSP counted as three chains

Molecule | peptide concentration at half maximal melanoma cell adhesion [1] [µM] | peptide concentration at half maximal melanoma cell adhesion [2] [µM]
THP-2, branched triple-helical polypeptide incorporating residues 1263-1277 from α1(IV) collagen | 1.12 | –
THP-3, branched triple-helical polypeptide of (Gly-Pro-Hyp)8 | > 100 | –
B1 | – | 170

Source: patent US5726243
